The Ki is the dissociation constant of the complex between target and ligand, obtained from inhibition or displacement. Read a high Ki as weaker binding.

*1 amine or outer side, *2 acyl side, *3 side chain or, on linkers, in order; H or OH if unused. Side-chain parts run from the residue outwards. The star is where a group is joined. C18 diacid = O=C(O)CCCCCCCCCCCCCCCCC(=O)*; γGlu = O=C(O)[C@H](CCC(=O)[*:2])N[*:1]; Isovaleryl = CC(C)CC(=O)*; AEEA = NCCOCCOCC(=O)O

Sequences and labels used below:
T1: human neuropeptide Y2 receptor (human, UniProt P49146 1-381)
T1 construct: whole, on cells; also called hNPY2 receptor; hNPY2-R
T1 sequence (looked up): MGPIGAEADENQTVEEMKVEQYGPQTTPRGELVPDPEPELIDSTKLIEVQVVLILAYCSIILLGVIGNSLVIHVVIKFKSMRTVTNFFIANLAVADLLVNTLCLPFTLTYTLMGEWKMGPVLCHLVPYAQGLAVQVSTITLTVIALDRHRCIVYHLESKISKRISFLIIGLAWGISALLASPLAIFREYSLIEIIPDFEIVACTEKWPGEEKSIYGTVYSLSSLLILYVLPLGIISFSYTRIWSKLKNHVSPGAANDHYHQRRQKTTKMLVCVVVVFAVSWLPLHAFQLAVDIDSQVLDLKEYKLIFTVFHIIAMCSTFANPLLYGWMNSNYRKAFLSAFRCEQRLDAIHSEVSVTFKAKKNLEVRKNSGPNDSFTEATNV

B1: Compound 17 (peptide)
peptide: Isovaleryl-APEK([AEEA-AEEA-γGlu-C18 diacid])PEEDASPAELQRYYVSLRHYYNWLTRQRY-NH2
SMILES: CC(C)CC(=O)N[C@@H](C)C(=O)N1CCC[C@H]1C(=O)N[C@@H](CCC(=O)O)C(=O)N[C@@H](CCCCNC(=O)COCCOCCNC(=O)COCCOCCNC(=O)CC[C@H](NC(=O)CCCCCCCCCCCCCCCCC(=O)O)C(=O)O)C(=O)N1CCC[C@H]1C(=O)N[C@@H](CCC(=O)O)C(=O)N[C@@H](CCC(=O)O)C(=O)N[C@@H](CC(=O)O)C(=O)N[C@@H](C)C(=O)N[C@@H](CO)C(=O)N1CCC[C@H]1C(=O)N[C@@H](C)C(=O)N[C@@H](CCC(=O)O)C(=O)N[C@@H](CC(C)C)C(=O)N[C@@H](CCC(N)=O)C(=O)N[C@@H](CCCNC(=N)N)C(=O)N[C@@H](Cc1ccc(O)cc1)C(=O)N[C@@H](Cc1ccc(O)cc1)C(=O)N[C@H](C(=O)N[C@@H](CO)C(=O)N[C@@H](CC(C)C)C(=O)N[C@@H](CCCNC(=N)N)C(=O)N[C@@H](Cc1c[nH]cn1)C(=O)N[C@@H](Cc1ccc(O)cc1)C(=O)N[C@@H](Cc1ccc(O)cc1)C(=O)N[C@@H](CC(N)=O)C(=O)N[C@@H](Cc1c[nH]c2ccccc12)C(=O)N[C@@H](CC(C)C)C(=O)N[C@H](C(=O)N[C@@H](CCCNC(=N)N)C(=O)N[C@@H](CCC(N)=O)C(=O)N[C@@H](CCCNC(=N)N)C(=O)N[C@@H](Cc1ccc(O)cc1)C(N)=O)[C@@H](C)O)C(C)C
B2: Compound 19 (peptide)
peptide: Isovaleryl-APEK([AEEA-AEEA-γGlu-C18 diacid])PEADASPEELQQYYVSLRHYYNWLTRQRY-NH2
SMILES: CC(C)CC(=O)N[C@@H](C)C(=O)N1CCC[C@H]1C(=O)N[C@@H](CCC(=O)O)C(=O)N[C@@H](CCCCNC(=O)COCCOCCNC(=O)COCCOCCNC(=O)CC[C@H](NC(=O)CCCCCCCCCCCCCCCCC(=O)O)C(=O)O)C(=O)N1CCC[C@H]1C(=O)N[C@@H](CCC(=O)O)C(=O)N[C@@H](C)C(=O)N[C@@H](CC(=O)O)C(=O)N[C@@H](C)C(=O)N[C@@H](CO)C(=O)N1CCC[C@H]1C(=O)N[C@@H](CCC(=O)O)C(=O)N[C@@H](CCC(=O)O)C(=O)N[C@@H](CC(C)C)C(=O)N[C@@H](CCC(N)=O)C(=O)N[C@@H](CCC(N)=O)C(=O)N[C@@H](Cc1ccc(O)cc1)C(=O)N[C@@H](Cc1ccc(O)cc1)C(=O)N[C@H](C(=O)N[C@@H](CO)C(=O)N[C@@H](CC(C)C)C(=O)N[C@@H](CCCNC(=N)N)C(=O)N[C@@H](Cc1c[nH]cn1)C(=O)N[C@@H](Cc1ccc(O)cc1)C(=O)N[C@@H](Cc1ccc(O)cc1)C(=O)N[C@@H](CC(N)=O)C(=O)N[C@@H](Cc1c[nH]c2ccccc12)C(=O)N[C@@H](CC(C)C)C(=O)N[C@H](C(=O)N[C@@H](CCCNC(=N)N)C(=O)N[C@@H](CCC(N)=O)C(=O)N[C@@H](CCCNC(=N)N)C(=O)N[C@@H](Cc1ccc(O)cc1)C(N)=O)[C@@H](C)O)C(C)C
B3: Compound 24 (peptide)
peptide: Isovaleryl-APEK([AEEA-AEEA-γGlu-C18 diacid])PEEDASPEELQRYYVSLRKYYNWLTRQRY-NH2
SMILES: CC(C)CC(=O)N[C@@H](C)C(=O)N1CCC[C@H]1C(=O)N[C@@H](CCC(=O)O)C(=O)N[C@@H](CCCCNC(=O)COCCOCCNC(=O)COCCOCCNC(=O)CC[C@H](NC(=O)CCCCCCCCCCCCCCCCC(=O)O)C(=O)O)C(=O)N1CCC[C@H]1C(=O)N[C@@H](CCC(=O)O)C(=O)N[C@@H](CCC(=O)O)C(=O)N[C@@H](CC(=O)O)C(=O)N[C@@H](C)C(=O)N[C@@H](CO)C(=O)N1CCC[C@H]1C(=O)N[C@@H](CCC(=O)O)C(=O)N[C@@H](CCC(=O)O)C(=O)N[C@@H](CC(C)C)C(=O)N[C@@H](CCC(N)=O)C(=O)N[C@@H](CCCNC(=N)N)C(=O)N[C@@H](Cc1ccc(O)cc1)C(=O)N[C@@H](Cc1ccc(O)cc1)C(=O)N[C@H](C(=O)N[C@@H](CO)C(=O)N[C@@H](CC(C)C)C(=O)N[C@@H](CCCNC(=N)N)C(=O)N[C@@H](CCCCN)C(=O)N[C@@H](Cc1ccc(O)cc1)C(=O)N[C@@H](Cc1ccc(O)cc1)C(=O)N[C@@H](CC(N)=O)C(=O)N[C@@H](Cc1c[nH]c2ccccc12)C(=O)N[C@@H](CC(C)C)C(=O)N[C@H](C(=O)N[C@@H](CCCNC(=N)N)C(=O)N[C@@H](CCC(N)=O)C(=O)N[C@@H](CCCNC(=N)N)C(=O)N[C@@H](Cc1ccc(O)cc1)C(N)=O)[C@@H](C)O)C(C)C
B4: Compound 25 (peptide)
peptide: Isovaleryl-APEK([AEEA-AEEA-γGlu-C18 diacid])PEEEASAEELQRYYVSLRHYYNWLTRQRY-NH2
SMILES: CC(C)CC(=O)N[C@@H](C)C(=O)N1CCC[C@H]1C(=O)N[C@@H](CCC(=O)O)C(=O)N[C@@H](CCCCNC(=O)COCCOCCNC(=O)COCCOCCNC(=O)CC[C@H](NC(=O)CCCCCCCCCCCCCCCCC(=O)O)C(=O)O)C(=O)N1CCC[C@H]1C(=O)N[C@@H](CCC(=O)O)C(=O)N[C@@H](CCC(=O)O)C(=O)N[C@@H](CCC(=O)O)C(=O)N[C@@H](C)C(=O)N[C@@H](CO)C(=O)N[C@@H](C)C(=O)N[C@@H](CCC(=O)O)C(=O)N[C@@H](CCC(=O)O)C(=O)N[C@@H](CC(C)C)C(=O)N[C@@H](CCC(N)=O)C(=O)N[C@@H](CCCNC(=N)N)C(=O)N[C@@H](Cc1ccc(O)cc1)C(=O)N[C@@H](Cc1ccc(O)cc1)C(=O)N[C@H](C(=O)N[C@@H](CO)C(=O)N[C@@H](CC(C)C)C(=O)N[C@@H](CCCNC(=N)N)C(=O)N[C@@H](Cc1c[nH]cn1)C(=O)N[C@@H](Cc1ccc(O)cc1)C(=O)N[C@@H](Cc1ccc(O)cc1)C(=O)N[C@@H](CC(N)=O)C(=O)N[C@@H](Cc1c[nH]c2ccccc12)C(=O)N[C@@H](CC(C)C)C(=O)N[C@H](C(=O)N[C@@H](CCCNC(=N)N)C(=O)N[C@@H](CCC(N)=O)C(=O)N[C@@H](CCCNC(=N)N)C(=O)N[C@@H](Cc1ccc(O)cc1)C(N)=O)[C@@H](C)O)C(C)C
B5: Compound 20 (peptide)
peptide: Isovaleryl-APEK([AEEA-AEEA-γGlu-C18 diacid])PEEDAAPEELQRYYVELRHYYNWLTRQRY-NH2
SMILES: CC(C)CC(=O)N[C@@H](C)C(=O)N1CCC[C@H]1C(=O)N[C@@H](CCC(=O)O)C(=O)N[C@@H](CCCCNC(=O)COCCOCCNC(=O)COCCOCCNC(=O)CC[C@H](NC(=O)CCCCCCCCCCCCCCCCC(=O)O)C(=O)O)C(=O)N1CCC[C@H]1C(=O)N[C@@H](CCC(=O)O)C(=O)N[C@@H](CCC(=O)O)C(=O)N[C@@H](CC(=O)O)C(=O)N[C@@H](C)C(=O)N[C@@H](C)C(=O)N1CCC[C@H]1C(=O)N[C@@H](CCC(=O)O)C(=O)N[C@@H](CCC(=O)O)C(=O)N[C@@H](CC(C)C)C(=O)N[C@@H](CCC(N)=O)C(=O)N[C@@H](CCCNC(=N)N)C(=O)N[C@@H](Cc1ccc(O)cc1)C(=O)N[C@@H](Cc1ccc(O)cc1)C(=O)N[C@H](C(=O)N[C@@H](CCC(=O)O)C(=O)N[C@@H](CC(C)C)C(=O)N[C@@H](CCCNC(=N)N)C(=O)N[C@@H](Cc1c[nH]cn1)C(=O)N[C@@H](Cc1ccc(O)cc1)C(=O)N[C@@H](Cc1ccc(O)cc1)C(=O)N[C@@H](CC(N)=O)C(=O)N[C@@H](Cc1c[nH]c2ccccc12)C(=O)N[C@@H](CC(C)C)C(=O)N[C@H](C(=O)N[C@@H](CCCNC(=N)N)C(=O)N[C@@H](CCC(N)=O)C(=O)N[C@@H](CCCNC(=N)N)C(=O)N[C@@H](Cc1ccc(O)cc1)C(N)=O)[C@@H](C)O)C(C)C
B6: Compound 21 (peptide)
peptide: Isovaleryl-APEK([AEEA-AEEA-γGlu-C18 diacid])PEEDASPEELQKYYVSLRHYYNWLTRQRY-NH2
SMILES: CC(C)CC(=O)N[C@@H](C)C(=O)N1CCC[C@H]1C(=O)N[C@@H](CCC(=O)O)C(=O)N[C@@H](CCCCNC(=O)COCCOCCNC(=O)COCCOCCNC(=O)CC[C@H](NC(=O)CCCCCCCCCCCCCCCCC(=O)O)C(=O)O)C(=O)N1CCC[C@H]1C(=O)N[C@@H](CCC(=O)O)C(=O)N[C@@H](CCC(=O)O)C(=O)N[C@@H](CC(=O)O)C(=O)N[C@@H](C)C(=O)N[C@@H](CO)C(=O)N1CCC[C@H]1C(=O)N[C@@H](CCC(=O)O)C(=O)N[C@@H](CCC(=O)O)C(=O)N[C@@H](CC(C)C)C(=O)N[C@@H](CCC(N)=O)C(=O)N[C@@H](CCCCN)C(=O)N[C@@H](Cc1ccc(O)cc1)C(=O)N[C@@H](Cc1ccc(O)cc1)C(=O)N[C@H](C(=O)N[C@@H](CO)C(=O)N[C@@H](CC(C)C)C(=O)N[C@@H](CCCNC(=N)N)C(=O)N[C@@H](Cc1c[nH]cn1)C(=O)N[C@@H](Cc1ccc(O)cc1)C(=O)N[C@@H](Cc1ccc(O)cc1)C(=O)N[C@@H](CC(N)=O)C(=O)N[C@@H](Cc1c[nH]c2ccccc12)C(=O)N[C@@H](CC(C)C)C(=O)N[C@H](C(=O)N[C@@H](CCCNC(=N)N)C(=O)N[C@@H](CCC(N)=O)C(=O)N[C@@H](CCCNC(=N)N)C(=O)N[C@@H](Cc1ccc(O)cc1)C(N)=O)[C@@H](C)O)C(C)C

In this test the target is T1, human neuropeptide Y2 receptor. Nature of the test: radioligand competition (125I-PYY(1-36)), hNPY2R membranes. The method, then:
The filtration RLB assay was carried out in 96-well plates in a final volume of 100 μl per well. Freeze-dried test peptides were dissolved in 100% dimethyl sulfoxide (DMSO) to stock solutions of 1 mM and serial dilutions were performed in assay buffer (50 mM HEPES, 5 mM MgCl₂, 1 mM CaCl₂, pH 7.4) containing 0.2% ovalbumin. […] Next, 80 μL membranes (HTS066M, ChemiSCREEN™ Human Neuropeptide Y2 Receptor Membrane Preparation, CHEMICON) were added to each well to give a final protein concentration of 0.5 μg/well. The plates were sealed and incubated at room temperature for 2 hours in a plate shaker set at 400 rpm. The incubation was stopped by vacuum filtration onto 0.5% poly-ethylene amine (PEI) presoaked GF/C filters using a 96-well FilterMate™ harvester (Perkin Elmer) followed by four washes with 300 μl/well ice-cold wash buffer (50 mM HEPES, 500 mM NaCl, pH7.4). Filter plates were then dried for 60 min at room temperature and the bottom of the plates was sealed with backing tape UniFilter-96. Finally, 50 μl/well scintillation counter cocktail (Microscint20, Packard) was added and the radioactivity was counted in the Packard TopCount NXT scintillation counter. IC₅₀ values (the half maximal inhibitory concentration of the agonist) were calculated by nonlinear regression analysis of sigmoidal dose-response curves.
(In general: Loss of bound radioactivity is the signal in a displacement assay; it reports binding, not function.)
On to B1, for which the affinity corresponds to a Ki of 0.93 nM.
Consider B2, for which the Ki came to 0.39 nM.
B3 gave a Ki of 2.22 nM.
B4: the Ki amounted to 4.36 nM.
B5 had a Ki of 2.57 nM.
In the case of B6, the Ki amounted to 1.52 nM.

The values above are taken from patent US20210139548A1 (published 2021).
